Like-named read-outs stand apart in the source and are kept apart here.
T1: human FcRH3 (BIACORE analyte) (human, UniProt Q96P31 18-573, limits assumed)
T1 construct: also called huFcRH3
T1 sequence (looked up): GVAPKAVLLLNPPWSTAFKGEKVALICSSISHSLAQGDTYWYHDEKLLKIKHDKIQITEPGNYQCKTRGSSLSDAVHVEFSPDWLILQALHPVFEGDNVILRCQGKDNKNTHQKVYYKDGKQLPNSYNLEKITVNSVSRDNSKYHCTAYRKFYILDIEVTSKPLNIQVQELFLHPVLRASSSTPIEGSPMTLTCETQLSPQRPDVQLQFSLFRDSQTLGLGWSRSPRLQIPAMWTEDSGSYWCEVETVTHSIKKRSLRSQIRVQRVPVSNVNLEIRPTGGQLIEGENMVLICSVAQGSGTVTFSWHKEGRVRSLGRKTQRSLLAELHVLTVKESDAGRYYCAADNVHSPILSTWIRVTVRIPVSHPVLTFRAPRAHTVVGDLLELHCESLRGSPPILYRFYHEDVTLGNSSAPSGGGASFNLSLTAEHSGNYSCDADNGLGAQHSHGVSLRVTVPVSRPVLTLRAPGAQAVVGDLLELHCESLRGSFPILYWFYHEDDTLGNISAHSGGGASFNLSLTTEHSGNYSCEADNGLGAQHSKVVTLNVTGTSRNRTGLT

T2: human FcRH4 (full-length, on SVT2 cells) (human, UniProt Q96PJ5 20-515)
T2 construct: whole, on cells; also called SVT2-FcRH4
T2 sequence (looked up): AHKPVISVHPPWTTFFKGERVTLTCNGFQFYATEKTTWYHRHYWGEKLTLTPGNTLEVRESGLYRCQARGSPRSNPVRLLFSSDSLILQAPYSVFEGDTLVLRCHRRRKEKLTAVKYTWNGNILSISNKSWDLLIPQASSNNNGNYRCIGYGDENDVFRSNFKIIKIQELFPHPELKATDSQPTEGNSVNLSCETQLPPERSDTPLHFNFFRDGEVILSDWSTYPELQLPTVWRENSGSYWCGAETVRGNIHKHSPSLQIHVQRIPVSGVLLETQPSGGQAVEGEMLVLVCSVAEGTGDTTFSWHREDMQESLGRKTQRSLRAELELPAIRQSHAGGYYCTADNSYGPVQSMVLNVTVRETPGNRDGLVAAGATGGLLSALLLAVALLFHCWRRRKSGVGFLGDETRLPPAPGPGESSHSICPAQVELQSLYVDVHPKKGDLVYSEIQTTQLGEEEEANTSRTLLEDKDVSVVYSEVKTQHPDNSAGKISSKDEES

B1: hu1G7.v1.4/38E4.v1 TDB (bispecific antibody, V domains shown)
VH 1: EVQLVESGPGLVKPSETLSLTCTVSGFSLTRFGVHWVRQPPGKGLEWLGVIWRGGSTDYNAAFMSRLTISKDNSKNQVSLKLSSVTAADTAVYYCSNHYYGSSDYALDNWGQGTLVTVSS
VL 1: DIQMTQSPSSLSASVGDRVTITCKASQDVRNLVVWFQQKPGKAPKLLIYSGSYRYSGVPSRFSGSGSGTDFTLTISSLQPEDFATYYCQQHYSPPYTFGQGTKVEIK
VH 2: EVQLVQSGAEVKKPGASVKVSCKASGFTFTSYYIHWVRQAPGQGLEWIGWIYPENDNTKYNEKFKDRVTITADTSTSTAYLELSSLRSEDTAVYYCARDGYSRYYFDYWGQGTLVTVSS
VL 2: DIVMTQSPDSLAVSLGERATINCKSSQSLLNSRTRKNYLAWYQQKPGQSPKLLIYWTSTRKSGVPDRFSGSGSGTDFTLTISSLQAEDVAVYYCKQSFILRTFGQGTKVEIK
notes: knob-into-hole TDB; also called 1G7.v1.4 TDB; 1G7.v1.4 (TDB format)
B2: 1G7.v85/38E4.v1 TDB (bispecific antibody, V domains shown)
VH 1: EVQLVESGPGLVKPSETLSLTCTVSGFSLTRFGVHWVRQPPGKGLEWLGVIWRGGSTDYNAAFVSRLTISKDNSKNQVSLKLSSVTAADTAVYYCSNHYYGSSDYALDNWGQGTLVTVSS
VL 1: DIQMTQSPSSLSASVGDRVTITCKASQDVRNLVVWFQQKPGKAPKLLIYSGSYRYSGVPSRFSGSGSGTDFTLTISSLQPEDFATYYCQQHYSPPYTFGQGTKVEIK
VH 2: EVQLVQSGAEVKKPGASVKVSCKASGFTFTSYYIHWVRQAPGQGLEWIGWIYPENDNTKYNEKFKDRVTITADTSTSTAYLELSSLRSEDTAVYYCARDGYSRYYFDYWGQGTLVTVSS
VL 2: DIVMTQSPDSLAVSLGERATINCKSSQSLLNSRTRKNYLAWYQQKPGQSPKLLIYWTSTRKSGVPDRFSGSGSGTDFTLTISSLQAEDVAVYYCKQSFILRTFGQGTKVEIK
notes: knob-into-hole TDB; also called 1G7.v85 TDB; 1G7.v85 (TDB format)

Key:
[1] = biological target: T1, human FcRH3 (BIACORE analyte); test: SPR (BIACORE), TDB captured as ligand, FcRH3 as analyte, 25 °C, 1:1 binding model
[2] = biological target: T1, human FcRH3 (BIACORE analyte); test: as above; remark: listed apart in the source
[3] = biological target: T2, human FcRH4 (full-length, on SVT2 cells); test: flow cytometry on SVT2-FcRH4 cells, PE-labelled secondary
Description: Human FcRH5, cyno FcRH5, human FcRH1, FcRH2, FcRH3, and FcRH4 transfected mouse SVT2 cells were used to test binding and cross-reactivity of FcRH5 TDBs. The method was carried out as follows. Cultured SVT2 cells were lifted using non-enzyme cell dissociation buffer (Sigma, #C5914). 1×10⁵ cells were suspended in 100 μL and incubated with FcRH5 TDBs at 3 μg/ml. […] Cells were washed twice with FACS buffer before flow cytometry analysis was carried out on a FACSCalibur.

| Binder | koff [1] [s⁻¹] | kon [1] [M⁻¹ s⁻¹] | Kd [2] [nM] | koff [2] [s⁻¹] | kon [2] [M⁻¹ s⁻¹] | binding result [3] |
| --- | --- | --- | --- | --- | --- | --- |
| B1 | 0.00833 | 109000 |  |  |  |  |
| B2 |  |  | 92.4 | 0.00741 | 80200 | no binding |

Source: US20240383984A1 (Genentech, published 2024)
